Experimental data from US20020147999A1 (J DAVID GLADSTONE INSTITUTES, published 2002).

Molecular target: apoE cleavage enzyme (chymotrypsin-like serine protease; in mouse brain lysate or roughly/partially purified)
Experiment: cell-based or functional assay

## AAPL [Ala-Ala-Pro-Leu (SEQ ID NO:3)]
  inhibition of apoE cleavage enzyme activity (chromogenic assay, 1 mM Ala-Ala-Pro-Phe-p-nitroanilide; 6 mM peptide; 20 hour incubation): 56%

## AAPF [Ala-Ala-Pro-Phe (SEQ ID NO:1)]
  inhibition of apoE cleavage enzyme activity (chromogenic assay, 1 mM Ala-Ala-Pro-Phe-p-nitroanilide; 6 mM peptide; 20 hour incubation): 67%

## AAAAPF [Ala-Ala-Ala-Ala-Pro-Phe (SEQ ID NO:4)]
  inhibition of apoE cleavage enzyme activity (chromogenic assay, 1 mM Ala-Ala-Pro-Phe-p-nitroanilide; 6 mM peptide; 20 hour incubation): 58%
